We go through two molecules from paper PMC7773337 (2020).

This assay deals with reconstituted mononucleosomes (histone octamer on Widom '601' DNA).

B1: zz-LAP1B(98-136)-2E His6 (S108E, T124E) (domain or fragment)
chain: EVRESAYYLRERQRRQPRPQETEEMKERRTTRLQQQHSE
As for B1, the Kd is 9.13 µM.

B2: zz-LAP1B(98-136)-His6 wild-type (domain or fragment)
chain: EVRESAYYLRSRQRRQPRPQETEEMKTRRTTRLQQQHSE
The molecule B2 showed a Kd of 0.43 µM.

For orientation: Kd means the equilibrium constant for the complex coming apart. Higher therefore signals weaker binding.
